Data published in publication PMC5361862, “Insights into ClpXP proteolysis: heterooligomerization and partial deactivation enhance chaperone affinity and substrate turnover in Listeria monocytogenes” (Chemical Science, 2016).
Where a SMILES comes first, the peptide text is derived from it. [ ]: non-standard residue; d: D form. The star is where a group is joined. Phe(3,4-Cl2) = N[C@@H](Cc1ccc(Cl)c(Cl)c1)C(=O)O; hArg = N=C(N)NCCCC[C@H](N)C(=O)O; Aoc(2) = CCCCCC[C@H](N)C(=O)O; CH2Cl = ClC*

Columns and labels:
LmClpXP2 [1] = target: T1, LmClpXP2 (Listeria monocytogenes, UniProt Q9RQI6); experiment: proteolysis of GFP-SsrA, fluorescence; assay type: biochemical; details: with LmClpX; inhibitor 1, 10, 100 μM; covalent; inhibition
T1 construct: gene clpP; ClpP2 homotetradecamer (LmClpP14) with hexameric chaperone LmClpX6

LmClpP2 = target: T2, LmClpP2 (Listeria monocytogenes, UniProt Q9RQI6); experiment: peptidase assay, Ac-Ala-hArg-Leu-ACC hydrolysis; assay type: biochemical; details: 1 μM ClpP; 200 μM substrate; inhibitor 1, 10, 100 μM; no ClpX; covalent
T2 construct: gene clpP; purified homotetradecamer; construct details in ESI

LmClpXP2 [2] = target: T1, LmClpXP2; experiment: proteolysis of GFP-SsrA, fluorescence; assay type: biochemical
[3] = target: Listeria monocytogenes ClpP2 homotetradecamer (LmClpP2), unmodified (Listeria monocytogenes); experiment: not stated; oligomeric state of LmClpP2 after treatment with inhibitors (E2, D3, Aoc-CMK, Leu-CMK), Fig. S4; method and conditions are in the ESI
[4] = target: Listeria monocytogenes ClpX chaperone (LmClpX) (Listeria monocytogenes) (UniProt Q8Y7K9)
[5] = target: Listeria monocytogenes ClpX chaperone (LmClpX) (Listeria monocytogenes) (UniProt Q8Y7K9); remark: listed apart in the source
[6] = target: LmClpP2 treated with Leu-CMK (Listeria monocytogenes); experiment: not stated; oligomeric state of LmClpP2 after treatment with inhibitors (E2, D3, Aoc-CMK, Leu-CMK), Fig. S4; method and conditions are in the ESI
[7] = target: LmClpP2 treated with beta-lactone D3 (Listeria monocytogenes); experiment: as above
[8] = target: Listeria monocytogenes ClpX chaperone (LmClpX) (Listeria monocytogenes) (UniProt Q8Y7K9); remark: listed apart in the source
[9] = target: partially Aoc-CMK-modified LmClpP2 homotetradecamer (Listeria monocytogenes); experiment: not stated; oligomeric state of LmClpP2 after treatment with inhibitors (E2, D3, Aoc-CMK, Leu-CMK), Fig. S4; method and conditions are in the ESI

For `COC(=O)c1ccc(OC(=O)CCc2cc(OC)c(OC)c(OC)c2)cc1` [AV170], the “% activity” value (LmClpXP2 [1]) was “AV170 turned out to be the most effective inhibitor against each complex” and the “% activity” value (LmClpP2) was “AV170 and both CMK inhibitors were the most effective against LmClpP2”.
In the case of `CCCCCC[C@H](NC(=O)[C@H](CCCCNC(=N)N)NC(=O)[C@H](Cc1ccc(Cl)c(Cl)c1)NC(C)=O)C(=O)CCl` [Aoc-CMK] (Ac-[Phe(3,4-Cl2)]-[hArg]-[Aoc(2)]-CH2Cl), the activity at 5 µM (LmClpXP2 [2]) is reported as 162%.
“Listeria monocytogenes ClpP2 homotetradecamer (LmClpP2), unmodified (enzyme)” was tested, and the stoichiometry N [3] was 14.
With “LmClpP1/2 heterocomplex containing Ser98 to Ala mutations” the K app from unfolding activity on GFP-LmSsrA (0.125 uM) with 0.4 uM LmClpX6 and varying concentrations of LmClpP14 (S98A heterocomplex) [4] was 224 nM.
Work on “LmClpP1/2 heterooligomeric complex, wild type (LmClpP1^wt/2^wt)” yielded a K app from protease activity of LmClpXP1/2 at varying concentrations of LmClpP1/2 (LmClpP14) [5] of 85 nM.
For LmClpP2 treated with Leu-CMK (enzyme), the stoichiometry N [6] was 14.
With “LmClpP2 treated with beta-lactone D3 (enzyme)” the stoichiometry N [7] was 14.
LmClpP2(S98A) homocomplex (enzyme) gave a K app from unfolding activity on GFP-LmSsrA (0.125 uM) with 0.4 uM LmClpX6 and varying concentrations of LmClpP14 (S98A homocomplex) [4] of 2360 nM.
Work on “partially Aoc-CMK-modified LmClpP2 homotetradecamer (enzyme)” yielded a protease activity (GFP-SsrA degradation) of LmClpXP2 at incremental Aoc-CMK concentrations, DMSO control as 100%; strongest at 5 uM Aoc-CMK, abolished at 50 uM [8] of 162% and a stoichiometry N [9] of 14.
